Source: the domain aggregation screens of Martell et al. (2025)

Assay: soluble fraction after stress (log2 fold change); higher = more stays soluble; pooled small domains, quantitative proteomics
Details: stress: 75 degC
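Also: 20 min heating vs room temperature control held 20 min.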

Row | Sequence | soluble fraction (log2)
1 | HMKQQNFADLAGRFVFNADNEVVFNFGKHKNVPVATVLKNEPGYYGWMMGGDFPLFTKKILKQIKEA | -1.05
2 | HMKQTFGAMLAALRKEKGMTQLELAEQMGVTDKAVSKWERDLSFPDVTSLPRLAEILEVSVDELMQ | -0.146
3 | HMKQVNVVSVIGQSEANAKTTLTGLGLKVNVAYEEDTSKADGIVLKQSLEGGKTVNEGTTITITVNKIA | 0.579
4 | HMKQVSDTGAIDAAIREVMDANPDKVAEYRSGKDKLFGFFVGQIMRAMAGKAAPVVVNDRLKALLD | 0.123
5 | HMKQVTVGGTINAGGARIYADSYGNGGGRQTFGSDPIYTVLQERNGYILTRWHKLSSGYTGWFKKSDVSA | -0.917
6 | HMKQYSFEISKADFKKISENFNFKIINEINDSLIISLNDKNINLDELLIFFVERKIKVRSIENI | -3.69
7 | HMKREELTQQTKQNLREAFWSLYIQKPIEKITVKEITDIAGYNRGTFYLYYKDTYDLLAKIE | -0.279
8 | HMKRLLLPGDLAGVRRHLLDRENSFHILRVLRLARGSTIEAMDDAGNRFSATLAGVKAGRALFDLAAKI | -1.75
9 | HMKRLPAQMGGGDGVLRVPGLNNFVYVTIADKTLPAFNNRVPPKKGLRIWVGYSPEEPNLFQVLSTRTD | -1.83
10 | HMKRLPMRKIRDVLRLSADGLSTRKIGVSLTIGRTTVQAYLDRAAEVDLSWPLPPEMSDTDLERLIYPR | -3.14
11 | HMKRNLVSVLDHIVGIGPKRRQSLRTHFGSLEKIKEASVEELAAAPGMNRTSAEAVRHFFDAQQELRGK | 0.727
12 | HMKRRSVIVSVVRAQVRQSADEAAAVVFEAEKNVSLDYLETMPGGWVKVRHRDGQTGFVRVNQIWG | -1.59
13 | HMKRSFGYIRLLPSKRYQASYIGPDSQRHAAPETFTRKMDAEGWLSAERRLIEWDQWTSPEQRAAQARLD | -0.663
14 | HMKRTRLEEAMDWLREQLNDGPVAYATLKDEAPKAEITLSTLRAAGEALRVDKQKKGVQWGGWTWSLPR | 0.00234
15 | HMKRVTRQRTEILRVIDESERPLGPQEILQAGREAIPSLSIATIYRTLRDLLAEELIKTVALPGDSPRYES | -1.33
16 | HMKSARDDILSALDKAGEPLSMKDIAELSGRKLSTLRAQMTRLVAEGAVQATAAAHSPDRKYRK | -0.319
17 | HMKSARQIAILEIIAEKSIETQEDLADALRLRGFQVTQATVSRDIKELRLVKALAPDGTYRYATAEK | -1.57
18 | HMKSEIRKKNSQIILDAAEHEFSVHGYRGTSVQMIADRSGLPKANLHYYYKSKSALYGAVLDRIL | 0.215
19 | HMKSERHALILSLIEKKNVETQEDLAELLKERGVAVTQATVSRDIKELRLIKVLSETGGYKYATVDKAE | -0.908
20 | HMKSIETVAELVAELKKLNPNAKISNIDGTYTLEEDINTITLPKDFKYDNNLGINNKIDDFTPYISLDVKA | 0.662
21 | HMKSIRIPFILTEGPNSQKITIDIDSDEEFRIGDVFDEDDKLWSINQILISGDRKAKMAIASEVTSISALR | -2.01
22 | HMKSKYLIKIEGDFDEKDLYKYLINVSIVNHTKNNGFTEVEFYNDNYSLQQNFLKSMLNDGIIITEFKKVE | -0.49
23 | HMKSLHSEVTDRIRQLIVESHLQPGQRVPELEISRDLGVSRTPIREALKVLAAEGLVELLPLRGAMVK | -0.0555
24 | HMKSLLTARQLEVFEIARNKGYWTTPRKISLVELSKLLDISKSTLSVLLHSIEGKVMEEFYEEIRQ | -2.22

Row | Sequence | soluble fraction (log2)
25 | HMKSNIIPLSLKKPQRLDIFLTNYFVDLSRTQIKKMITDGNIKVNDLIAKPSLKLIGDEIIFYTLPK | -1.46
26 | HMKSNNPLDHVRVKQRGASWAYYFEKAKVDGKRRRGEGGGYATEQDARMAGVEAYNAYIGGGAK | -0.172
27 | HMKSPVKLILRGSIYHIKISAVVNGQRIFVRESSHTTDKREAEQYANKRFAQLVEETEFRTN | -1.18
28 | HMKSQSIFNVKKGDTLSHIAVHVLKKNKQKVTPEAINKMVSNIAFRNKIKNPDLIFPGQKLVLEY | -0.169
29 | HMKSQVVAYSDFVKAVNQKQINEVQIQGDKIRAINKAGEEITVTWLQNDQKLMDDLLDNNVKTIFLE | 0.0189
30 | HMKSSYSGNFKQNVVEYMHNNHLSATETANHFKLGGGSVVLRWERIYYEEGPQALYEERRGR | -1.26
31 | HMKSYAQIAEILSGQQPNTSRKEGSNLAVHADWIDALIAKYGTALRPEEANEVVKKEIGIVFSHVLEN | -0.412
32 | HMKSYQKITPATEGNYLTTYREGDDIKTYEGVKAMYTPADFDASSVREITPEEHQSYQKAKEQALQEETEQ | -0.204
33 | HMKTALDEAKDFLNGALSKGHRPASDVVDEAKEASISEKTLKRAKLAIGIITRKEGFGSEGKWVWELPAR | -0.375
34 | HMKTATAKIKATPFGWLRVRETPSLNGAEIARVNSGESYKILERGEGWIKIKVSDTVEGWVSEAYVELS | -0.244
35 | HMKTEKYIQVISGTVNVRSGPGTSYAEIAKIDASQIYVVTAKEGEWLKISLANGTIGYVAGWLVKEVTG | -1.47
36 | HMKTEVNITPGIIDWIERYVQTDKISSSMTEDFQHWKSGTKKPTFNQVEAFSKAINVPLGYFFLKTPPAE | -0.725
37 | HMKTFSFEILADTVKKQRKAKGMTQAELSEATGINRSMIGQMENMTFKPSIEQLEALSQALDFNVIDLYTE | -0.325
38 | HMKTGHLPVTVIIDGRIISDNLYKTGLSNNWLADQLRKNSIKSSEDVFFAYLNPERKFIYQLRSNS | -1.49
39 | HMKTGNIVMVNLGWKGKYYSIKMFFPQVSKPSRKDVQDQIEKIYPGGKLYTFVVSNYEPGEPMLHA | -1.41
40 | HMKTITLDEAQEIALAEVDGKVTRAVEETDDGRSYYEFDIITNDQKHELEVDASSGKITKNEIDEDYVPS | 0.0581
41 | HMKTITVEDEQAGKRLDKALAELFPHYSRSALEKLIKEGQVLVNKSFVKSKYSLKLGDEISLQFEQL | -0.325
42 | HMKTKILAPIPGSIMVVDVKVGDTVKVGDRLVQLEAMKMENNITSEKAGKITAVLVTAGQKVLQNEVMIEL | -1.01
43 | HMKTLLSMNIKNLRKKKNMTLEELAEKVGTSKQTIQRYESGKISNIPSDKIELLAKYLDTTPAKLMGW | -0.139
44 | HMKTLNKRQQDIINLAREEGFVTVEHLSEYFKVTQQTIRRDLGYLSENLYLARTYGGAFFQS | -0.854
45 | HMKTTKLEELDMQKEFILKNGKYGFGVYIGGKYIGLTDIGTVNSFKDSLQLPVVSLSDIDFKTFAEKF | -1.27
46 | HMKTYEILFDILSRESDYISGEKLAQELGISRTSIWKAIQHLEKEGVHIESVKNKGYKLLSGDLLIAEKI | -1.77
47 | HMKTYGGDNSLHKFDEHHSWMVAKYGPVVKQTINGETKWLKVKKDLTLAQVKKMKLEDVLLPKSQT | -0.534
48 | HMKVDRLVSMILILLEQQRVGAQELADRFEVSVRTIYRDMEAINQAGIPVRSTSGVGGGFEIM | -0.471

Row | Sequence | soluble fraction (log2)
49 | HMKVFREERLQLILEKLIHEKKVVVSDLVKYFNVSPSLIRMDLAELEKRDLILRTHGGAILPD | -2.9
50 | HMKVKEYKLVDWISTFTKNEGYGISQKAAMLLAEFLGDDLSRIANEIEKLKLLVEKGTTINDVHIEENI | -1.09
51 | HMKVLFLESIEGSASMGEIKDVANGYARNFLFPNGFAVPATPKNLKNVEELQAKELEIQTERDNWAA | -0.016
52 | HMKVSDLIGMLGRVTGELAPTGIVLVGNKTWTAISEDASVIASGEQVQVRSVAGLILTVSHQVD | -2.32
53 | HMKVSVPDIMDNSSLRQAEAKLRALGFRVTEPEYISGEKDWVYSVTYKGRTLNAGDKVPHEALLTLHVGNG | -0.163
54 | HMKVTADVVVADRLKAWIISNNLKPGDRLPTEQKLSEELGVARHTLREGIKRLSQLGIIGSRTGSGMYVKN | -1.06
55 | HMKWIEILKSKDGNYALLQDEKDTQFVVASGYNPDAAEDQKWGHGSYFIYWNNKENKAEMLMNAIDLFRYR | -2.21
56 | HMKYEFEFPYWSNKEAKHMIVTINYPNGTRATASIQDNDGSNPDYKRIMEEFGEEQIDANTEEGLKRR | -0.0803
57 | HMKYEGEDEYYASLVTEKIAAIGTVTEESEDAIKEARAAYDALTSAQKKLVTNYDVLDEAEK | -0.144
58 | HMKYGPSTVATLKVARLGEMGAFLDAETGDTSDDILLHKTQQTAPVKVGDEVEVFLYLDPKRRLTASMRV | -0.118
59 | HMKYGPSTVAVLTVVRESEMGAFLDAETGRTNDDILLHKTQQTEPVHIGDQVKVFLYLDPKHRLTASMRVP | -1.03
60 | HMKYNETEFKNLVAKLYNGEIEIVGKFTGLSYPILVKDKYGIMLSQKANLILNYRPTINIALNKTEYAMN | -0.289
61 | HMKYSELLLEIILQSKEHPTAEQIFIEAKKRNPKIVQATVYNNLKNLLAQGRVIRISNPGQPDRYDNT | -1.83
62 | HMKYVDYYATLGVARDADLATITKAYRKLARQTHPDLNQGADNEARFKAAAEAYATLKHPEKRAAYDELGQ | 0.0183
63 | HMKYWTISDLYSKLEEDQVELGAFSEDSNKVTVLDRQGYEHVIKILSSDVPALTELFRKKKVRFAVAG | -1.3
64 | HMKYYIYQGVGASGELTKIAEVTDQKTYTVTGLQAKTTYRFAVSSYNGLRESTKSNIVTVTT | -0.134
65 | HMLAAAVVVYATDKVNVRAEASETADVIGQLEAGSQTTRLEDKDGWSRIDYSNGTQGYMKSEFLSTEAPT | 0.347
66 | HMLADEPTGALDSKTSVQIMALLTEIAQDRLVIMVTHNPELADEYATRIVNLRDGVISDDSDPFNP | -0.0933
67 | HMLAEEAFNKQAATAGYVYRDGSYHPAASVAQYDAMPRNYRTNTMAQELSRSQVESQLQQSQ | 0.752
68 | HMLAGKTYEVQTESGGKWTLVASYNVKSQAIQQAQALLESHKYSGVKVIAESDRKGEEVIFNEQSEVT | -0.0725
69 | HMLALKSGQVVVGTIIRRLDNTTAMLRIGNQLFETSFAKGLPKSNHILLRYDAMQGNRFIFTMVE | -0.635
70 | HMLANLNKELQNDAALLKQKAQGNSNLLAKIQDVEQQMKQVNTSSASDEAKAKELQTLQRKLTAYKKALA | -0.0577
